# Experimental data reported in US20200165325A1.
# Like-named read-outs stand apart in the source and are kept apart here.
# What was measured:
# [1] = molecular target: HIV-1 Env of strain AC10.0.29 (HIV-1)
# [2] = molecular target: HIV-1 Env of strain CAP210.2.00.E8 (HIV-1)
# [3] = molecular target: HIV-1 Env of strain CAP45.2.00.G3 (HIV-1)
# [4] = molecular target: HIV-1 Env of strain Du172.17 (HIV-1)
# [5] = molecular target: HIV-1 Env of strain SC422661.8 (HIV-1)
# [6] = molecular target: HIV-1 Env of strain TRO.11 (HIV-1)
# [7] = molecular target: Env (gp120) of HIV-1 strain AC10.0.29 (HIV-1)
# [8] = molecular target: Env (gp120) of HIV-1 strain CAP210.2.00.E8 (HIV-1)
# [9] = molecular target: Env (gp120) of HIV-1 strain CAP45.2.00.G3 (HIV-1)
# [10] = molecular target: Env (gp120) of HIV-1 strain Du172.17 (HIV-1)
# [11] = molecular target: Env (gp120) of HIV-1 strain SC422661.8 (HIV-1)
# [12] = molecular target: Env (gp120) of HIV-1 strain TRO.11 (HIV-1)
# [13] = molecular target: Env (gp120) of HIV-1 strain AC10.0.29 (HIV-1); remark: listed apart in the source
# [14] = molecular target: Env (gp120) of HIV-1 strain CAP45.2.00.G3 (HIV-1); remark: listed apart in the source
# [15] = molecular target: Env (gp120) of HIV-1 strain QH0692.42 (HIV-1)
# [16] = molecular target: Env (gp120) of HIV-1 strain SC422661.8 (HIV-1); remark: listed apart in the source
# [17] = molecular target: Env (gp120) of HIV-1 strain T257-31 (HIV-1)
# [18] = molecular target: Env (gp120) of HIV-1 strain TRO.11 (HIV-1); remark: listed apart in the source
# [19] = molecular target: Env (gp120) of HIV-1 strain ZM214M.PL15 (HIV-1)
Substance,In vitro neutralization IC50 [1],In vitro neutralization IC50 [2],In vitro neutralization IC50 [3],In vitro neutralization IC50 [4],In vitro neutralization IC50 [5],In vitro neutralization IC50 [6],neutralization IC50 [7],neutralization IC50 [8],neutralization IC50 [9],neutralization IC50 [10],neutralization IC50 [11],neutralization IC50 [12],further results
3BNC55 T54W IgG (antibody),> 50 µg/mL,> 50 µg/mL,> 50 µg/mL,> 50 µg/mL,0.6 µg/mL,> 50 µg/mL,,,,,,,
3BNC60 T54W IgG (antibody),3.1 µg/mL,5 µg/mL,19 µg/mL,0.04 µg/mL,0.1 µg/mL,0.06 µg/mL,,,,,,,
3BNC117 T54W IgG (antibody),2.8 µg/mL,2.8 µg/mL,23 µg/mL,0.9 µg/mL,0.07 µg/mL,0.6 µg/mL,,,,,,,
12A12 Y54W IgG (antibody),0.5 µg/mL,> 50 µg/mL,0.2 µg/mL,0.1 µg/mL,0.2 µg/mL,0.2 µg/mL,,,,,,,
NIH45-46 G54H IgG (antibody),,,,,,,0.6 µg/mL,> 50 µg/mL,> 50 µg/mL,> 50 µg/mL,0.09 µg/mL,0.2 µg/mL,
NIH45-46 G54I IgG (antibody),,,,,,,8.6 µg/mL,> 50 µg/mL,> 50 µg/mL,> 50 µg/mL,0.1 µg/mL,10 µg/mL,
NIH45-46 G54L IgG (antibody),,,,,,,1.7 µg/mL,> 50 µg/mL,> 50 µg/mL,> 50 µg/mL,0.1 µg/mL,0.3 µg/mL,
NIH45-46 G54M IgG (antibody),,,,,,,1.5 µg/mL,> 50 µg/mL,> 50 µg/mL,> 50 µg/mL,0.06 µg/mL,0.3 µg/mL,
NIH45-46 Y99dA (antibody),,,,,,,,,,,,,neutralization IC50 [13]: 4.4 µg/mL; neutralization IC50 [14]: > 50 µg/mL; neutralization IC50 [15]: 2.1 µg/mL; neutralization IC50 [16]: 0.08 µg/mL; neutralization IC50 [17]: 2.4 µg/mL; neutralization IC50 [18]: > 50 µg/mL; neutralization IC50 [19]: 1.1 µg/mL
